According to article PMC4113718 (Biochemistry, 2013):
Read-outs that look alike come from different tables or passages of the source.

Columns and labels:
[1] = target: T1, N-Terminal FITC labeled ubiquitin (UniProt P0CG47 1-76, FITC on the N-terminus); experiment: binding of a fluorescent ligand to cells
[2] = target: T1, N-Terminal FITC labeled ubiquitin; experiment: binding of a fluorescent ligand to cells; remark: listed apart in the source

B1: CXC chemokine receptor (CXCR) 4 on BV-2 cells (receptor, mouse (endogenous in BV-2), UniProt P70658 1-359, looked up)
chain: MEPISVSIYTSDNYSEEVGSGDYDSNKEPCFRDENVHFNRIFLPTIYFIIFLTGIVGNGLVILVMGYQKKLRSMTDKYRLHLSVADLLFVITLPFWAVDAMADWYFGKFLCKAVHIIYTVNLYSSVLILAFISLDRYLAIVHATNSQRPRKLLAEKAVYVGVWIPALLLTIPDFIFADVSQGDISQGDDRYICDRLYPDSLWMVVFQFQHIMVGLILPGIVILSCYCIIISKLSHSKGHQKRKALKTTVILILAFFACWLPYYVGISIDSFILLGVIKQGCDFESIVHKWISITEALAFFHCCLNPILYAFLGAKFKSSAQHALNSMSRGSSLKILSKGKRGGHSSVSTESESSSFHSS
[1]
  Kd: 154 nM
[2]
  Kd: 119 nM
